We go through three molecules from patent US20230398184A1, “METHODS OF INDUCING STEM CELL MOBILIZATION” (NeoImmuneTech, Inc., priority 2020, published 2023).

Assay type in all cases: in vivo, C57BL/6 mice
Assay [1] relates to LSK cells and HSCs. In words: IL-7 and AMD3100 combination, HSC mobilization into peripheral blood. Particulars: IL-7 0.5 mg/kg day 0; AMD3100 5 mg/kg 1 hour prior to analysis; day 3. The procedure: As described herein, AMD3100 (CXCR4 antagonist) is another regimen that is commonly used to promote the migration of HSCs from the bone marrow into the peripheral blood. Cashen et al., Future Oncol 3(1): 19-27 (February 2007). To determine whether IL-7 can also enhance the HSC mobilization effects of AMD3100, C57BL/6 animals received a single subcutaneous administration of the following: (i) buffer alone, (ii) IL-7 alone (0.5 mg/kg), (iii) AMD3100 (5 mg/kg), and (iv) IL-7 (0.5 mg/kg) in combination with AMD3100 (5 mg/kg). […] At day 3 post initial administration, the number of both LSK cells and HSCs were again assessed in the peripheral blood using flow cytometry.

Assay [2] concerns LSK cells and HSCs. In words: Comparison of IL-7 with G-CSF and G-CSF + AMD3100 on mobilization of HSCs to peripheral blood. The note with it: PEG-rhG-CSF 5 μg s.c. day 3; rhG-CSF 6.25 μg/day days 0-3. As for the experimental part: As described herein, granulocyte colony stimulating factor (G-CSF) is a standard regimen used in the clinic to induce HSC mobilization. Therefore, the potency of IL-7 was compared to that of G-CSF on inducing the mobilization of HSCs to peripheral blood was assessed. Briefly, C57BL/6 mice were treated with one of the following: (i) control buffer (“control”), (ii) IL-7 protein (“IL-7”) (2.5 mg/kg; subcutaneous), (iii) long-acting pegylated recombinant human G-CSF (“PEG-rhG-CSF”) (5 μg; subcutaneous), or (iv) non-pegylated recombinant human G-CSF (“rhG-CSF”) (twice a day (6.25 μg/day) at days 0, 1, 2, and 3 (i.e., total dose of 25 μg/mouse); subcutaneous). In animals treated with the IL-7 protein or PEG-rhG-CSF, the number of LSK cells and HSCs was determined in the peripheral blood at day 3 post administration. In animals treated with rhG-CSF, the number of LSK cells and HSCs in the peripheral blood was assessed within 6-8 hours after last rhG-CSF administration.
In this regard, the potency of IL-7 protein alone to the G-CSF+AMD3100 combinational regimen was next compared. Briefly, normal C57BL/6 mice were administered with one of the following: (i) control buffer, (ii) IL-7 protein alone, (iii) pegylated recombinant human G-CSF (“G-CSF”), or (iv) G-CSF in combination with AMD3100. Then, the number of HSCs in the peripheral blood was assessed at day 3 post administration.

The test system of assay [3] is LSK cells and HSCs. In words: IL-7 and G-CSF combination, HSC mobilization into peripheral blood. Particulars: IL-7 0.5 mg/kg or G-CSF 5 μg s.c., day 3. As for the experimental part:
To determine whether the combined treatment of IL-7 and G-CSF can further improve the mobilization of HSCs into the peripheral blood, C57BL/6 animals received a single subcutaneous administration of one of the following: (i) buffer alone, (ii) IL-7 alone (0.5 mg/kg), (iii) pegylated recombinant human G-CSF alone (5 μg), and (iv) IL-7 (0.5 mg/kg) in combination with G-CSF (5 μg). Then, at day 3 post administration, both the number of LSK cells and HSCs in the peripheral blood were assessed using flow cytometry.

`c1cc(CN2CCCNCCNCCCNCC2)ccc1CN1CCCNCCNCCCNCC1` [AMD3100]: the “amount of LSK cells and HSCs in peripheral blood vs control” value with LSK cells and HSCs [1] is given as “comparable to that of the control animals”.

B1: PEG-rhG-CSF: long-acting pegylated recombinant human G-CSF (protein, UniProt P09919 31-207, looked up)
Granulocyte …: TPLGPASSLPQSFLLKCLEQVRKIQGDGAALQEKLVSECATYKLCHPEELVLLGHSLGIPWAPLSSCPSQALQLAGCLSQLHSGLFLYQGLLQALEGISPELGPTLDTLQLDVADFATTIWQQMEELGMAPALQPTQGAMPAFASAFQRRAGGVLVASHLQSFLEVSYRVLRHLAQP
modifications: PEG
In the case of B1, the “efficacy of mobilization, the two types of G-CSF compared” value in the assay with LSK cells and HSCs [2] was “comparable efficacy of mobilization”. The “amount of LSK cells in peripheral blood vs buffer alone” value in the assay with LSK cells and HSCs [3] was “increased amount”.

B2: rhG-CSF: non-pegylated recombinant human G-CSF (protein, UniProt P09919 31-207, looked up)
Granulocyte …: B1 Granulocyte …
Turning to B2, the “efficacy of mobilization, the two types of G-CSF compared” value with LSK cells and HSCs [2] was “comparable efficacy of mobilization”.
